The Kd is a measure of binding affinity in units of concentration.

Changes are numbered by the printed parent chain.

The source of these data is patent publication US20200317768A1 (published 2020).

Assay [1] concerns the target T1, human FcγRIIb extracellular domain, His-tagged (human, UniProt P31994 43-217).
T1 construct: also called FcgRIIb (human)
T1 sequence: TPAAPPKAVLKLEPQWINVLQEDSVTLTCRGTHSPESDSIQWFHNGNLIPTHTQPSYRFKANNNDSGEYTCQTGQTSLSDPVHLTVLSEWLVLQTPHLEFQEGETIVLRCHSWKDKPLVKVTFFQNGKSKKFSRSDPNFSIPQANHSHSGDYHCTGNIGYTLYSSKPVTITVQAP
Nature of the assay: SPR, antibody captured, FcgR analyte. The protocol:
(§1) The kinetic analysis of interactions between these antibodies and FcγR was carried out using BIACORE® T200 or BIACORE® 4000 (GE Healthcare). HBS-EP+ (GE Healthcare) was used as the running buffer, and the measurement temperature was set to 25° C. A chip produced by immobilizing Protein A. Protein A/G or mouse anti-human IgG kappa light chain (BD Biosciences) onto a Series S Sensor Chip CM4 or CM5 (GE Healthcare) by the amine-coupling method was used. […] After the measurement, the antibody captured on the chip was washed off by allowing reaction with 10 mM glycine-HCl, pH1.5 and 25 mM NaOH so that the chip was regenerated and used repeatedly. The sensorgrams obtained as measurement results were analyzed by the 1:1 Langmuir binding model using the BIACORE® Evaluation Software to calculate the binding rate constant ka (L/mol/s) and dissociation rate constant kd (l/s), and the dissociation constant KD (mol/L) was calculated from these values. […] Regarding such interactions, KD values were calculated using the following 1:1 binding model described in BIACORE® T100 Software Handbook BR1006-48 Edition AE.
(§2) The behavior of interacting molecules according to the 1:1 binding model on BIACORE® can be described by Equation 1: Req=C·R max/(KD+C)+RI, wherein, Req is a plot of steady-state binding levels to analyte concentration. C is concentration, RI is bulk refractive index contribution in the sample, and Rmax is analyte binding capacity of the surface. When this equation is rearranged, KD can be expressed as Equation 2: KD=C·Rmax/(Req−RI)−C. KD can be calculated by substituting the values of Rmax, RI, and C into Equation 1 or Equation 2. From the current measurement conditions, RI=0, C=2 μmol/L can be used.

Assay [2] deals with T2, cynomolgus monkey FcγRIIIaS extracellular domain, His-tagged (cynomolgus monkey, UniProt Q8SPW2 21-206 at identity 1.00)).
T2 construct: also called cyno FcγRIIIaS; cynoFcγRIIIaS
T2 chain: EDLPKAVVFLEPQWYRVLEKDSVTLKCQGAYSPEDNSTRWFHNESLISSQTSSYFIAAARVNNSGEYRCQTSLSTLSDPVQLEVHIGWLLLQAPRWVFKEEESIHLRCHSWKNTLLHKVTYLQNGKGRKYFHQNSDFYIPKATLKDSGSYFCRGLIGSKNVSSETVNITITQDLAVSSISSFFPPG
Nature of the assay: SPR, antibody captured, FcgR analyte. The protocol:
as §1, §2
Background: Surface plasmon resonance follows binding to a sensor surface in real time, without labels.

The target of assay [3] is T3, human FcγRIIaR extracellular domain, His-tagged (human, UniProt P12318 34-217).
T3 construct: also called human FcγRIIa (type R); FcgRIIaR
T3 chain: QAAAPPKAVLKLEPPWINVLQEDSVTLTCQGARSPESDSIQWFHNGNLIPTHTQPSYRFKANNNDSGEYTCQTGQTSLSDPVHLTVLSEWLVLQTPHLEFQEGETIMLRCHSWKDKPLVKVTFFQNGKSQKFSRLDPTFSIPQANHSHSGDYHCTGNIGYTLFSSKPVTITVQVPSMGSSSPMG
Description: SPR, antibody captured, FcgR analyte. The protocol: as §1, §2

The target in assay [4] is T4, cynomolgus monkey FcγRIIb extracellular domain, His-tagged (cynomolgus monkey).
T4 construct: also called cyno FcγRIIb; cynoFcγRIIb
T4 chain: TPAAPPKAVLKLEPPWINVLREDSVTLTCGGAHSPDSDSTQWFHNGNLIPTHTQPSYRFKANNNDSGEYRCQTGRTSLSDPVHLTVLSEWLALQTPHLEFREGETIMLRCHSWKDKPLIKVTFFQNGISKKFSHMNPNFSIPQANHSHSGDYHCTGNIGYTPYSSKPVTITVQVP
Description: SPR, antibody captured, FcgR analyte. The method, then:
as §1, §2

The target in assay [5] is T5, human FcγRIIIaV extracellular domain, His-tagged (human, UniProt P08637 17-208).
T5 construct: also called FcgRIIIaV
T5 sequence (P08637 17-208 F176V): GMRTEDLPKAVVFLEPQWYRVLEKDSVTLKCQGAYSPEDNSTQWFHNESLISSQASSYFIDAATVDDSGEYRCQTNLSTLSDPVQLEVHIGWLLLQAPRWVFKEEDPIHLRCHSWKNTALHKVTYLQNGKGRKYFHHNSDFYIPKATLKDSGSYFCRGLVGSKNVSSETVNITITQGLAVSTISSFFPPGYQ
Nature of the assay: SPR, antibody captured, FcgR analyte. The method, then:
as §1, §2

For assay [6], the target named is T6, human FcγRIIaH extracellular domain, His-tagged (human, UniProt P12318 34-217).
T6 construct: also called human FcγRIIa (type H); FcgRIIaH
T6 sequence: T3 chain with R134H
Description: SPR, antibody captured, FcgR analyte. The protocol: as §1, §2

Assay [7] has as its target T7, cynomolgus monkey FcγRIIa3 extracellular domain, His-tagged (cynomolgus monkey).
T7 construct: also called cyno FcγRIIa3; cynoFcgRIIa3
T7 chain: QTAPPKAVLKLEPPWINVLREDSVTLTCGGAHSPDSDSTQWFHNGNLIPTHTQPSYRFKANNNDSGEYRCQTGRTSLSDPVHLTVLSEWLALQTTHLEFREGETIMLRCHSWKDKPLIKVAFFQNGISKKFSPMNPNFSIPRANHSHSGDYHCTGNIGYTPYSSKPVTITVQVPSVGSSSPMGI
Description: SPR, antibody captured, FcgR analyte. The protocol:
as §1, §2

In assay [8] the target is T8, cynomolgus monkey FcγRIIa2 extracellular domain, His-tagged (cynomolgus monkey).
T8 construct: also called cyno FcγRIIa2; cynoFcgRIIa2
T8 chain: T7 chain with I127K, K130N, P133H, R142Q
Nature of the assay: SPR, antibody captured, FcgR analyte. The protocol: as §1, §2

Assay [9] has as its target T9, cynomolgus monkey FcγRIIa1 extracellular domain, His-tagged (cynomolgus monkey).
T9 construct: also called cyno FcγRIIa1; cynoFcgRIIa1
T9 chain: T7 chain with T95P, A121T, S128A, P133H, N135D
Description: SPR, antibody captured, FcgR analyte. The protocol:
as §1, §2

In assay [10] the target is T1, human FcγRIIb extracellular domain, …. Nature of the assay: SPR; KD of SG1 / KD of variant.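 Also: relative to parent M103205H795-SG1 carrying the SG1 human heavy chain constant region.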
The target of assay [11] is T2, cynomolgus monkey FcγRIIIaS …. Nature of the assay: SPR; KD of SG1 / KD of variant.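 Also: relative to parent M103205H795-SG1 carrying the SG1 human heavy chain constant region.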
The target in assay [12] is T4, cynomolgus monkey FcγRIIb extracellular …. Description: SPR; KD of SG1 / KD of variant.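 Also: relative to parent M103205H795-SG1 carrying the SG1 human heavy chain constant region.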
Assay [13] concerns the target T5, human FcγRIIIaV extracellular domain, …. Nature of the assay: SPR; KD of SG1 / KD of variant.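 Also: relative to parent M103205H795-SG1 carrying the SG1 human heavy chain constant region.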
In assay [14] the target is T6, human FcγRIIaH extracellular domain, …. Description: SPR; KD of SG1 / KD of variant.
The target in assay [15] is T7, cynomolgus monkey FcγRIIa3 …. Nature of the assay: SPR; KD of SG1 / KD of variant.
Assay [16] has as its target T8, cynomolgus monkey FcγRIIa2 …. Description: SPR; KD of SG1 / KD of variant.
For assay [17], the target named is T9, cynomolgus monkey FcγRIIa1 …. Description: SPR; KD of SG1 / KD of variant.

B1: M103205H795-MY017/M103202L889-SK1 (antibody, human IgG1, kappa)
heavy: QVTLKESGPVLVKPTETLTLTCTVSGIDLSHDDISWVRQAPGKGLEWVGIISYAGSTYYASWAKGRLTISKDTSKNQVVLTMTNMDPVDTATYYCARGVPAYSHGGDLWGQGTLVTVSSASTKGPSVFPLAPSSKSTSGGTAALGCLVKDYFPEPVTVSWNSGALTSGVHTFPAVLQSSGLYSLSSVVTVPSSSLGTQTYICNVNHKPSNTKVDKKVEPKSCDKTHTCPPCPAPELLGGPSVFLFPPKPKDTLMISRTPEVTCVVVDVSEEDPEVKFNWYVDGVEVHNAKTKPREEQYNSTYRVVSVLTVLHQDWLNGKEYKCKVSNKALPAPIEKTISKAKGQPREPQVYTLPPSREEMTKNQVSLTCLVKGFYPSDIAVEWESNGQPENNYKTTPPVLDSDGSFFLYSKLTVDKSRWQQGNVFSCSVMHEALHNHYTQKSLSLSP
light: DIVMTQSPATLSLSPGERATLSCTSSQSVYHANWLSWFQQKPGQPPKLLIYWASTLAYGVPSRFSGSGSGTDFTLTISSLQPEDAATYYCAGGYGGGRYAFGQGTKVEIKRTVAAPSVFIFPPSDEQLKSGTASVVCLLNNFYPREAKVQWKVDNALQSGNSQESVTEQDSKDSTYSLSSTLTLSKADYEKHKVYACEVTHQGLSSPVTKSFNRGEC
notes: Substitution put into M103205H795-SG1
Consider B1, for which the Kd in [1] was 940 nM; in assay [2], 98 nM; in assay [3] it was 280 nM; in assay [4] it was 580 nM; in assay [5], 140 nM; in assay [6], 450 nM. The Kd in assay [7] is 5500 nM; in [8], 2900 nM; in assay [9], 2700 nM. In addition, the “KD fold (SG1 = 1)” value in assay [10] was 4.9 fold; in [11], 3.67 fold; in assay [12] it was 2.6 fold; in [13] it was 5.79 fold; in [14] it was 1.5 fold; in [15], 3.2 fold. The “KD fold (SG1 = 1)” value is 1.8 fold in assay [16] and 1.2 fold in assay [17].
